Where “and” joins values, the source holds several entries; their conditions need not be identical. Equal entries are not always repeated.

The values below come from PMC2770428 (2010).

Assay [1] concerns the target C4b (surface-bound) (Homo sapiens) (UniProt P0C0L4). Conditions: cited from earlier work.
Assay [2] has as its target C4b (soluble) (Homo sapiens) (UniProt P0C0L4). The settings on record: cited from earlier work.
Assay [3] deals with C3bC4b complex (on zymosan, average) C3b+C4b (Homo sapiens, UniProt P01024). Nature of the assay: 125I-C4BP equilibrium binding.
The target of assay [4] is C3bC4b complex (on zymosan, 54,000 C4b/Zym) C3b+C4b (Homo sapiens, UniProt P01024). Kind of assay: 125I-C4BP equilibrium binding.
In assay [5] the target is T1, C4b (on zymosan, average) C4b (Homo sapiens, UniProt P0C0L5).
T1 chain 1: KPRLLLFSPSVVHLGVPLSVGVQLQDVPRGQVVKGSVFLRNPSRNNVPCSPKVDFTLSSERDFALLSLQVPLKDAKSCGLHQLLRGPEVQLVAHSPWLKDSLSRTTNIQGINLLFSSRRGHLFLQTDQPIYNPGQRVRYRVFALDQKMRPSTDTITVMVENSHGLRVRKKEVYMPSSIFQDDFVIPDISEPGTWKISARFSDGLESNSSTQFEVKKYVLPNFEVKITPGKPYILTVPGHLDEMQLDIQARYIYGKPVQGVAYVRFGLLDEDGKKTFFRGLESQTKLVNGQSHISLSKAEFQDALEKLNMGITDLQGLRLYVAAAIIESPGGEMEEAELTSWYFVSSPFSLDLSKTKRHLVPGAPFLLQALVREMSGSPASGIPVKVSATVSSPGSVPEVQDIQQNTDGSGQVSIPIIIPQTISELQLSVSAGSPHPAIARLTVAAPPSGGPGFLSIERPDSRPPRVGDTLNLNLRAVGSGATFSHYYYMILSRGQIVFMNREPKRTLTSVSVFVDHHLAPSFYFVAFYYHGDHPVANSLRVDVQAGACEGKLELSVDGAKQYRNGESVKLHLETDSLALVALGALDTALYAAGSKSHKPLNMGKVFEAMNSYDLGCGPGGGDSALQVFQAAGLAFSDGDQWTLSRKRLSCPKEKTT
T1 chain 2: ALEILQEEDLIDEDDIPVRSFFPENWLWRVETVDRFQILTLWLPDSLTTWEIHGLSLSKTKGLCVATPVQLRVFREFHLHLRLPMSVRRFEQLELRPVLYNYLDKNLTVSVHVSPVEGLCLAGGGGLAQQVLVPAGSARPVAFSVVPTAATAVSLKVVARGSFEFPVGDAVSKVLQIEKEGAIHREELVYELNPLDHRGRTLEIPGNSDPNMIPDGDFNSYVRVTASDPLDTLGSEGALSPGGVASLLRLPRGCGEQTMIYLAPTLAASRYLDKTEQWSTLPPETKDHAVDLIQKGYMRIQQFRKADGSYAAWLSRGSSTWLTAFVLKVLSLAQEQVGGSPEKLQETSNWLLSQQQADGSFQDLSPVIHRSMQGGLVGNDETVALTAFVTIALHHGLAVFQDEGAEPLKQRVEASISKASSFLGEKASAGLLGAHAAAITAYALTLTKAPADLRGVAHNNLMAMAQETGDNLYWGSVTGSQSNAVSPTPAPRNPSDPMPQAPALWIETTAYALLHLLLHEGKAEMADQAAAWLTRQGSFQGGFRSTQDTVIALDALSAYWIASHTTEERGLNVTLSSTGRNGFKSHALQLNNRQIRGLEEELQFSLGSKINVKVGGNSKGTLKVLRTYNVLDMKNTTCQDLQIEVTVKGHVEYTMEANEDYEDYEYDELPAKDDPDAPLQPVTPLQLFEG
T1 chain 3: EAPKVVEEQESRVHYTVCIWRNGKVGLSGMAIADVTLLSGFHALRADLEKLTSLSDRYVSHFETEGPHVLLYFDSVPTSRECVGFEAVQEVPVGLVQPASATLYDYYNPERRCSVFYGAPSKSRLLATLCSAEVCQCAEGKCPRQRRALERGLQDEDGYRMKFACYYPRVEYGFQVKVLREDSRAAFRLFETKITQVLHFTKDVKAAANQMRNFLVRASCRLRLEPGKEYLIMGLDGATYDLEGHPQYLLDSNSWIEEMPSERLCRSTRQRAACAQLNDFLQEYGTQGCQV
Nature of the assay: 125I-C4BP equilibrium binding.

The target in assay [6] is C3bC4b complex (on EMan, average) C3b+C4b (Homo sapiens, UniProt P01024). Nature of the assay: 125I-C4BP equilibrium binding.
C3bC4b complex (on EMan, average) C3b+C4b, sequence (P01024 23-1663, one chain of several): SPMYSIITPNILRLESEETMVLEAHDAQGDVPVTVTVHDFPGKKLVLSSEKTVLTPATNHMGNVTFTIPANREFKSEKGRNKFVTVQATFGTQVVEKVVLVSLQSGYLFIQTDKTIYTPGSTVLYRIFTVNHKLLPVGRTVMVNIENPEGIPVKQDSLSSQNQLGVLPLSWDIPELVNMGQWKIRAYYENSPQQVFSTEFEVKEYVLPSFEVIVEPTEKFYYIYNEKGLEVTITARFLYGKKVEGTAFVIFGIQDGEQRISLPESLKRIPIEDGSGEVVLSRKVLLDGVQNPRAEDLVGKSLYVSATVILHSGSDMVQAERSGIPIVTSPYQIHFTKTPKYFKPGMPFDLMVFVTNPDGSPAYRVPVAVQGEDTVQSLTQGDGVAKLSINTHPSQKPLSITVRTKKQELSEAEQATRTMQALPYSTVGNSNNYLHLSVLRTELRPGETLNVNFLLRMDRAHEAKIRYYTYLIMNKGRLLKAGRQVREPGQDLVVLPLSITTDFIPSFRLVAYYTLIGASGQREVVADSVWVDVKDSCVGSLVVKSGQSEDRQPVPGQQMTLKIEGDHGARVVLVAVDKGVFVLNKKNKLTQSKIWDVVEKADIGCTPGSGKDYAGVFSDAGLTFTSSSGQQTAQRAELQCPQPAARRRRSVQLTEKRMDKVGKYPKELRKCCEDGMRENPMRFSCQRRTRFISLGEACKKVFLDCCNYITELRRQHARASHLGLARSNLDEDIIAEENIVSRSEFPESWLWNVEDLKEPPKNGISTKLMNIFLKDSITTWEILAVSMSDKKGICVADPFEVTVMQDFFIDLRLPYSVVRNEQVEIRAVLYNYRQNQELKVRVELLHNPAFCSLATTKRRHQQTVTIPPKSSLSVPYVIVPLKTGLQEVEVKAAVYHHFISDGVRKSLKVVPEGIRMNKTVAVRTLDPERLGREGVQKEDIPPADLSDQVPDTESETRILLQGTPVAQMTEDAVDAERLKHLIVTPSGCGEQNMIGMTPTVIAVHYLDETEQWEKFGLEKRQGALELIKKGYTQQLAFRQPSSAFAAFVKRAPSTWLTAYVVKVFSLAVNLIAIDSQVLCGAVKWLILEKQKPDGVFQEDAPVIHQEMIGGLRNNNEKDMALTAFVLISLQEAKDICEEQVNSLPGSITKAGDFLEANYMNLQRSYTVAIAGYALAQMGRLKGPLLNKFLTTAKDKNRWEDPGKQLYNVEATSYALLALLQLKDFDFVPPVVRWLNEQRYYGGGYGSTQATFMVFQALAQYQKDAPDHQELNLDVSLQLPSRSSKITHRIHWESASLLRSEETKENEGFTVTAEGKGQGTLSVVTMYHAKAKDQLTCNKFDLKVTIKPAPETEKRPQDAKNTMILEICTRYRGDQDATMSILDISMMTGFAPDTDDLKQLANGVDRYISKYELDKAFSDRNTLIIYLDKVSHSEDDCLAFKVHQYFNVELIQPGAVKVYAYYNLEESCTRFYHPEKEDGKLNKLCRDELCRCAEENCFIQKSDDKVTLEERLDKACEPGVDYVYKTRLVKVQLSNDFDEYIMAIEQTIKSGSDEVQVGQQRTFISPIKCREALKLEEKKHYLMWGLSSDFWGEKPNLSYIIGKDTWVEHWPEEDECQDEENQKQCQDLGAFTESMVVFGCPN

C3bC4b complex (on zymosan, 54,000 C4b/Zym) C3b+C4b, sequence (P01024 23-1663, one chain of several): as above
C3bC4b complex (on zymosan, average) C3b+C4b, sequence (P01024 23-1663, one chain of several): as above

Take C4BP (from UniProt P04003): the dissociation constant Kd (as a rule, the concentration at which binding is half-saturated) is 5 nM and 2.2 nM in assay [1]; 80 nM in assay [2].

B1: C4b-binding protein (C4BP) (protein)
chain 1: NCGPPPTLSFAAPMDITLTETRFKTGTTLKYTCLPGYVRSHSTQTLTCNSDGEWVYNTFCIYKRCRHPGELRNGQVEIKTDLSFGSQIEFSCSEGFFLIGSTTSRCEVQDRGVGWSHPLPQCEIVKCKPPPDIRNGRHSGEENFYAYGFSVTYSCDPRFSLLGHASISCTVENETIGVWRPSPPTCEKITCRKPDVSHGEMVSGFGPIYNYKDTIVFKCQKGFVLRGSSVIHCDADSKWNPSPPACEPNSCINLPDIPHASWETYPRPTKEDVYVVGTVLRYRCHPGYKPTTDEPTTVICQKNLRWTPYQGCEALCCPEPKLNNGEITQHRKSRPANHCVYFYGDEISFSCHETSRFSAICQGDGTWSPRTPSCGDICNFPPKIAHGHYKQSSSYSFFKEEIIYECDKGYILVGQAKLSCSYSHWSAPAPQCKALCRKPELVNGRLSVDKDQYVEPENVTIQCDSGYGVVGPQSITCSGNRTWYPEVPKCEWETPEGCEQVLTGKRLMQCLPNPEDVKMALEVYKLSLEIEQLELQRDSARQSTLDKEL
chain 2: SDAEHCPELPPVDNSIFVAKEVEGQILGTYVCIKGYHLVGKKTLFCNASKEWDNTTTECRLGHCPDPVLVNGEFSSSGPVNVSDKITFMCNDHYILKGSNRSQCLEDHTWAPPFPICKSRDCDPPGNPVHGYFEGNNFTLGSTISYYCEDRYYLVGVQEQQCVDGEWSSALPVCKLIQEAPKPECEKALLAFQESKNLCEAMENFMQQLKESGMTMEELKYSLELKKAELKAKLL
B1: the Kd in assay [3] stood at 0.9 nM; in assay [4] it was 0.62 nM; in assay [5], 0.95 nM; in assay [6], 2.1 nM.
